Measured values taken from patent US7041457B2, “Gαq protein variants and their use in the analysis and discovery of agonists and antagonists of chemosensory receptors” (Senomyx, Inc., priority 2000, dated 2006).
Changes are numbered by the printed parent chain.

T1: bitter receptor mT2R5 (Mus musculus, UniProt Q9JKT4)
T1 construct: expressed in transfected cells
T1 sequence (Q9JKT4 1-300): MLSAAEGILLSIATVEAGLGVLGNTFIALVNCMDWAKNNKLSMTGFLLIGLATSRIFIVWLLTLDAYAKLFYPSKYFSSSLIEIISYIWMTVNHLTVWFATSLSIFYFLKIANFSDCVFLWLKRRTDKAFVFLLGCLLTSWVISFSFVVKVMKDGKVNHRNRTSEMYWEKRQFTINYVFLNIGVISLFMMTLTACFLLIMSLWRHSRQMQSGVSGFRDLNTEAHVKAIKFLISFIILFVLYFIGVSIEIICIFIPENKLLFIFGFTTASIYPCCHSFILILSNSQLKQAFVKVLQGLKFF

T2: mouse olfactory receptor 17 (Mus musculus, UniProt Q9QWU6)
T2 construct: expressed in transfected cells
T2 sequence (Q9QWU6 1-327): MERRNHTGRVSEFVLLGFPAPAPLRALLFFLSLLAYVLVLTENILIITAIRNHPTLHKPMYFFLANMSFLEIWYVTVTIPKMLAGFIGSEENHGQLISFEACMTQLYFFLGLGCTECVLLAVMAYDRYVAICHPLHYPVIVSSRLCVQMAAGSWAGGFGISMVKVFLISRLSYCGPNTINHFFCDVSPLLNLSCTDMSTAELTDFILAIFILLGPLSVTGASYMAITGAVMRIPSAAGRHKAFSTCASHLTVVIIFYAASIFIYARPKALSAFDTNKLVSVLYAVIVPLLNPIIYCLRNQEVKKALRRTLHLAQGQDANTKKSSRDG

B1: MGq (HV-HA)-t5: mouse Gαq HV-HA with C-terminal five amino acids of transducin, SEQ ID NO:12 (protein, listed as Mus sp.)
chain: MTLESIMACCLSEEAKEARRINDEIERHVRRDKRDARRELKLLLLGTGESGKSTFIKQMRIIHGSGYSDEDKRGFTKLVYQNIFTAMQAMIRAMDTLKIPYKYEHNKAHAQLVREVDVEKVSAFDVPDYAAIKSLWNDPGIQECYDRRREYQLSDSTKYYLNDLDRVADPSYLPTQQDVLRVRVPTTGIIEYPFDLQSVIFRMVDVGGQRSERRKWIHCFENVTSIMFLVALSEYDQVLVESDNENRMEESKALFRTIITYPWFQNSSVILFLNKKDLLEEKIMYSHLVDYFPEYDGPQRDAQAAREFILKMFVDLNPDSDKIIYSHFTCATDTENIRFVFAAVKDTILQLNLKDCGLF
modifications: HA tag; transducin C-terminal five residues
B2: MGq (HVD-HA)-t5: mouse Gαq HVD-HA with C-terminal five amino acids of transducin, SEQ ID NO:13 (protein, listed as Mus sp.)
chain: B1 chain with G66D
modifications: HA tag; transducin C-terminal five residues
B3: MGq (ΔN-HVD-HA)-t5: mouse Gαq ΔN-HVD-HA with C-terminal five amino acids replaced by those of transducin, SEQ ID NO:6 (protein, listed as Mus sp.)
chain: MACCLSEEAKEARRINDEIERHVRRDKRDARRELKLLLLGTGESGKSTFIKQMRIIHGSGYSDEDKRGFTKLVYQNIFTAMQAMIRAMDTLKIPYKYEHNKAHAQLVREVDVEKVSAFDVPDYAAIKSLWNDPGIQECYDRRREYQLSDSTKYYLNDLDRVADPSYLPTQQDVLRVRVPTTGIIEYPFDLQSVIFRMVDVGGQRSERRKWIHCFENVTSIMFLVALSEYDQVLVESDNENRMEESKALFRTIITYPWFQNSSVILFLNKKDLLEEKIMYSHLVDYFPEYDGPQRDAQAAREFILKMFVDLNPDSDKIIYSHFTCATDTENIRFVFAAVKDTILQLNLKDCGLF
modifications: HA tag; transducin C-terminal five residues
B4: MGq (ΔN-HVD-HA)-t44: mouse Gαq ΔN-HVD-HA with C-terminal 44 amino acids of transducin, SEQ ID NO:7 (protein, listed as Mus sp.)
chain: MACCLSEEAKEARRINDEIERHVRRDKRDARRELKLLLLGTGESGKSTFIKQMRIIHGSGYSDEDKRGFTKLVYQNIFTAMQAMIRAMDTLKIPYKYEHNKAHAQLVREVDVEKVSAFDVPDYAAIKSLWNDPGIQECYDRRREYQLSDSTKYYLNDLDRVADPSYLPTQQDVLRVRVPTTGIIEYPFDLQSVIFRMVDVGGQRSERRKWIHCFENVTSIMFLVALSEYDQVLVESDNENRMEESKALFRTIITYPWFQNSSVILFLNKKDLLEEKIMYSHLVDYFPEYDGPQRDAQAAREFILKMFVDLNPDNMRRDVKEIYSHMTCATDTQNVKFVFDAVTDIIIKENLKDCGLF
modifications: HA tag; transducin C-terminal 44 residues
B5: HGq (ΔN): human Gαq with truncation of N-terminal six amino acids, SEQ ID NO:16 (protein, listed as Homo sapiens)
chain: MACCLSEEAKEARRINDEIERQLRRDKRDARRELKLLLLGTGESGKSTFIKQMRIIHGSGYSDEDKRGFTKLVYQNIFTAMQAMIRAMDTLKIPYKYEHNKAHAQLVREVDVEKVSAFENPYVDAIKSLWNDPGIQECYDRRREYQLSDSTKYYLNDLDRVADPAYLPTQQDVLRVRVPTTGIIEYPFDLQSVIFRMVDVGGQRSERRKWIHCFENVTSIMFLVALSEYDQVLVESDNENRMEESKALFRTIITYPWFQNSSVILFLNKKDLLEEKIMYSHLVDYFPEYDGPQRDAQAAREFILKMFVDLNPDSDKIIYSHFTCATDTENIRFVFAAVKDTILQLNLKEYNAV
B6: HGq: human Gαq protein, SEQ ID NO:15 (protein, listed as Homo sapiens)
chain: MTLESIMACCLSEEAKEARRINDEIERQLRRDKRDARRELKLLLLGTGESGKSTFIKQMRIIHGSGYSDEDKRGFTKLVYQNIFTAMQAMIRAMDTLKIPYKYEHNKAHAQLVREVDVEKVSAFENPYVDAIKSLWNDPGIQECYDRRREYQLSDSTKYYLNDLDRVADPAYLPTQQDVLRVRVPTTGIIEYPFDLQSVIFRMVDVGGQRSERRKWIHCFENVTSIMFLVALSEYDQVLVESDNENRMEESKALFRTIITYPWFQNSSVILFLNKKDLLEEKIMYSHLVDYFPEYDGPQRDAQAAREFILKMFVDLNPDSDKINYSHFTCATDTENIRFVFAAVKDTILQLNLKEYNAV
B7: MGq (ΔN-HVD-HA)-olf5: mouse Gαq ΔN-HVD-HA with C-terminal five amino acids of Gαolf, SEQ ID NO:14 (protein, listed as Mus sp.)
chain: B3 chain with G60D, D349Q, C350Y, G351E, F353L
modifications: HA tag; Gαolf C-terminal five residues

Biological target: T1, bitter receptor mT2R5
Experiment: Functional coupling of Gq variants with bitter taste receptor mT2R5 (mammalian cell-based systems and Xenopus oocytes, calcium imaging)
Description: (§1) The present invention addresses the above described problems associated with using Gα15/α16, as well as other problems known in the art relating to the use of weakly promiscuous Gα proteins. […] According to the invention, the functional coupling can be determined, for example, by measuring changes in intracellular IP3 or calcium. In a particular embodiment, the Gq protein variants can be expressed in mammalian cell lines or Xenopus oocytes, and then evaluated using calcium fluorescence imaging and electrophysiological recording.
(§2) It was found by functional analysis using single-cell calcium imaging that activation of multi-family GPCRs evoked increases in cytosolic calcium in the presence of the Gαq variants with the G66D mutation. These GPCRs include Gαs-coupled β-adrenergic receptor, Gαolf-coupled mouse 17 olfactory receptor, Gαi-coupled m2 muscarinic receptor, and gustducin-coupled bitter receptor mT2R5. No significant change in cytosolic calcium could be detected by activation of the above GPCRs in the absence of the Gαq variants. Additional GPCRs can include those disclosed in U.S. patent application Ser. No. 09/510,332 filed Feb. 22, 2000 now abandoned; and U.S. Provisional Application Nos. 60/213,849 filed Jun. 23, 2000; 60/209,840 filed Jun. 6, 2000; 60/195,536 filed Apr. 7, 2000; 60/195,534 filed Apr. 7, 2000; 60/195,532 filed Apr. 7, 2000; which are herein incorporated by references for all purposes in a manner consistent with this disclosure.
A series of Gαq protein variants having the sequences listed in FIG. 3 were constructed and tested in mammalian cell-based systems and in Xenopus oocytes for functional coupling efficiency with bitter receptor mT2R5 and mouse olfactory receptor 17.

| Molecule | Functional Activity With Taste Receptor MT2R5 |
| --- | --- |
| B1 | + |
| B2 | ++ |
| B3 | ++ |
| B4 | ++ |
| B5 | − |
| B6 | − |

Biological target: T2, mouse olfactory receptor 17
Experiment: Functional coupling of Gq variants with mouse olfactory receptor 17 (mammalian cell-based systems and Xenopus oocytes, calcium imaging)
Design: key to the marks not given beside the values
Description: as §1
as §2, with “7, 2000; which are herein incorporated by references for all purposes in a manner consistent with this disclosure.” left out

| Molecule | Functional Activity with Olfactory Receptor ml7 |
| --- | --- |
| B7 | ++ |
